Experiment [1] addresses T1, human GITR-His (human, UniProt Q9Y5U5 26-161).
T1 construct: Bought from Acro biosystems; also called GITR-His (Acro biosystems); antigen GITR-His
T1 sequence: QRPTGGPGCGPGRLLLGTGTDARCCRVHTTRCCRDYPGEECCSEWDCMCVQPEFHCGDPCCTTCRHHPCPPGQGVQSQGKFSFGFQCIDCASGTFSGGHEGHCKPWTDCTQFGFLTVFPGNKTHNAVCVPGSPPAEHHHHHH
Briefly: ForteBio BLI, antibody on AHQ tip, human GITR-His 100 nM in solution, 1:1 model. As to the method:
(§1) (2) Experimental procedure: 100 μl of SD buffer and antibodies (hcIgG-02, hcIgG-03, hcIgG-04, hcIgG-07, hcIgG-09, hcIgG-10, hcIgG-16 and hcIgG-20, control antibody), GITR-His (Acro biosystems) were added to a 96-well half-volume black polystyrene microplate. The plate was arranged according to the positions of the samples, the position of the sensor was selected, and the operation procedures were set as: Baseline, Loading ˜1 nm, Baseline, Association and Dissociation, each running for a time depending on the binding and dissociation rates of the sample, at a rotation speed of 400 rpm and a temperature of 30° C.
(3) A 1:1 binding model was adopted for kinetic analysis.
(In general: Biolayer interferometry detects binding as a change in optical thickness at a sensor tip.)

For experiment [2], the target named is T2, human GITR overexpressed on CHO cells (CHO-GITR) (human, UniProt Q9Y5U5 26-241).
T2 construct: whole, on cells; also called cell surface GITR protein; antigen expressed on the cell surface
T2 sequence (looked up): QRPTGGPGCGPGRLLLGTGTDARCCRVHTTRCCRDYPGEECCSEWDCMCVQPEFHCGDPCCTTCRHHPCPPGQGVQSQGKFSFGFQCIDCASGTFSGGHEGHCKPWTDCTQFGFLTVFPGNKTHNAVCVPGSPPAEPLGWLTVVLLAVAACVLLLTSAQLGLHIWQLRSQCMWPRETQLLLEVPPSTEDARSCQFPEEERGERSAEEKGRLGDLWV
Briefly: flow cytometry on CHO-GITR cells, PE anti-human Fc detection, MFI; direct binding titration, the table row is labelled IC50, nM is taken from the concentration axis. The method, then: (1) Cell preparation: The pCHO1.0 vector (Invitrogen) carrying human GITR cDNA cloned to a multiple cloning site (MCS) was transfected into Chinese hamster ovary cancer cells (CHO) (Invitrogen) to produce human GITR-overexpressing CHO cells (CHO-GITR), the CHO cells (CHO-GITR) overexpressing human GITR on the surface thereof were counted, and diluted to 1×10⁶ cells/mL, and added to a U-bottom 96-well plate with 100 μL/well.
(1) Detection: The cell suspension was centrifuged at 400 g for 5 min to remove the cell medium. Serial dilutions of the sample were added to a U-shaped plate, and then the cells were resuspended and added to the plate with 100 μL/well. The plate was put onto the ice to stand for 30 min The cell suspension was centrifuged at 400 g for 5 min, and the supernatant was discarded. The cells were washed once with PBS, and then centrifuged at 400 g for 5 min to remove PBS. 100 μL of the solution of PE-conjugated anti-human Fc antibody (Jackson Immuno Research) diluted at a ratio of 1:200 was added to each well, and the cells were incubated in dark on the ice for 30 min The cell suspension was centrifuged at 400 g for 5 min, and the supernatant was discarded. The cells were washed once with PBS. The cells were resuspended with 100 μL of PBS.
In general terms: Flow cytometry measures light scatter and fluorescence of single cells or particles in a stream.

Experiment [3] addresses GITR protein overexpressed on Hela cells (Hela-GITR-NF-κB-Luc-Rep). As to the kind of experiment: cell-based or functional assay.
The target in experiment [4] is T1, human GITR-His. Briefly: ForteBio BLI, antibody on AHQ tip, human GITR-His 100 nM in solution. As to the method:
as §1
In this experiment, binding kinetics and affinity for the antibody hcIgG-20 before humanization and the antibody HzhcIgG-20 after humanization were determined using the ForteBio method in the same way as in Example 3. ForteBio results are listed in Table 4. hcIgG-20 and HzhcIgG-20 retain the binding ability to GITRs, and the affinity is higher than the control antibody TRX518.

Experiment [5] has as its target T2, human GITR overexpressed on CHO cells …. Briefly: flow cytometry on CHO-GITR cells, PE anti-human Fc detection, MFI.

Changes are numbered by the printed parent chain.

B1: hcIgG-02 (antibody, V domains shown)
VH: QVQLQESGGGSVQAGGSLRLSCAASRDTYTRYFMGWFRQTPGKEGEGVAVLLPGGDYTFYADSVKGRFTITQDSAKNTVYLQMNSLKPEDTAMYYCAADVTVGSRWSQASNYNYWGQGTQVTVSS
notes: also called heavy-chain antibody of Nb-02
In general, Kd refers to the free concentration of one partner at which half of the binding sites on the other are occupied at equilibrium, for simple one-to-one binding. A higher Kd goes with lower affinity. Usually koff stands for the first-order rate constant of dissociation. Higher therefore signals fast dissociation. One may read the kon as the rate constant with which the complex forms. What is called IC50 is the concentration needed to halve the response being measured. In the experiment with human GITR-His [1], B1 gave a dissociation constant (Kd) of 6.33 nM, a koff of 0.00214 s⁻¹ and an association rate constant (kon) of 338000 M⁻¹ s⁻¹. Besides, in experiment [2], the 50% inhibitory concentration (IC50) stood at 41.2 nM.

B2: hcIgG-09 (antibody, V domains shown)
VH: QVQLQESGGGLVQPGGSLRLSCGASGFTFSSTAMWWFRQAPGKGLEWVSSITSDVSGTYYADSVQGRFTISRDNGKNTVYLQMNSLRSEDTALYYCATSCGFSGGTWSCKYRGQGTQVTVSS
notes: also called heavy-chain antibody of Nb-09
Consider B2, for which, in the experiment with human GITR-His [1], binding was characterised by a dissociation constant (Kd) of 1.89 nM, the off-rate (koff) came to 0.000487 s⁻¹ and the kon worked out at 257000 M⁻¹ s⁻¹. The half-maximal inhibitory concentration (IC50) in experiment [2] worked out at 4.89 nM.

B3: HzhcIgG-20 (antibody, V domains shown)
VH: QVQLQESGGGLVQPGGSLRLSCAASGYSRTSRWMAWFRQAPGKGLEGVAAIYTGGSSTLYADSVKGRFTISRDNAKNSVYLQMNSLRAEDTAVYYCAADKLAGDFWLVDRWRAWGQGTLVTVSS
notes: Humanized heavy-chain antibody without light chain; also called humanized hcIgG-20; humanized HcIgG
A word on the EC50 (read off the curve): it is the concentration at which the effect is half-maximal. As for B3, the “EC50 for the activation (NF-κB luciferase reporter)” value in experiment [3] is 0.663 nM. Further, in the experiment with human GITR-His [4], the Kd was 4 nM, the off-rate (koff) turned out to be 0.00128 s⁻¹ and the on-rate constant (kon) was 321000 M⁻¹ s⁻¹. Moreover, in experiment [5], the concentration for a half-maximal effect (EC50 (read off the curve)) was roughly 2 nM.

B4: hcIgG-07 (antibody, V domains shown)
VH: QVQLQESGGGLVQAGGSLKLSCTVSGFAFGSSHMSWVRRAPGKGLEWVSTIHSGGGFGDYANSVQGRFTISRDVAKNTLYLQMNSLKPEDTAIYYCALATDWRKPPGQGTQVTVSS
notes: also called heavy-chain antibody of Nb-07
For B4, in the experiment with human GITR-His [1], the dissociation constant Kd was determined as 4.08 nM, the koff amounted to 0.00099 s⁻¹ and the on-rate (kon) is 243000 M⁻¹ s⁻¹. In experiment [2], this molecule showed a half-maximal inhibitory concentration (IC50) of 1.44 nM.

B5: hcIgG-10 (antibody, V domains shown)
VH: B4 VH with A14P, K19R, T23A, V24A
notes: also called heavy-chain antibody of Nb-10
In the experiment with human GITR-His [1], B5 showed a Kd of 3.22 nM, an off-rate (koff) of 0.000742 s⁻¹ and an association rate constant (kon) of 231000 M⁻¹ s⁻¹. In experiment [2], the half-inhibitory concentration (IC50) was 1.47 nM.

B6: hcIgG-03 (antibody, V domains shown)
VH: QVQLQESGGGSVQAGGSLRLSCAASGYTYSGYCMGWFRQAPGKEHEGVASIVSGLGRPYYADSVKGRFTISQDNAKNTVYLQMNSLKPEDTAMYYCAAEWATKLCSEIPATEWDYWGQGTQVTVSS
notes: also called heavy-chain antibody of Nb-03
For the molecule B6, in the experiment with human GITR-His [1], binding was put at a Kd of 5.3 nM, the koff was determined as 0.00172 s⁻¹ and the kon was 324000 M⁻¹ s⁻¹. For the same molecule, the IC50 in experiment [2] was found to be 102 nM.

B7: hcIgG-20 (antibody, V domains shown)
VH: QVQLQESGGGSVQAGGSLRLSCASSGYSRTSRWMAWFRQAPGKEREGVAAIYTGGSSTLYANSMADRVTISQDNAKNTVYLRMNNLKPEDTAMYYCAADKLAGDFWLVDRWRAWGQGTQVTVSS
notes: also called heavy-chain antibody of Nb-20
For the molecule B7, the “EC50 for the activation (NF-κB luciferase reporter)” value in experiment [3] worked out at 0.689 nM. In addition, in the experiment with human GITR-His [4], the dissociation constant Kd worked out at 4.35 nM, the koff stood at 0.000917 s⁻¹ and the on-rate constant (kon) was determined as 211000 M⁻¹ s⁻¹. In addition, the “EC50 (read off the curve)” value in experiment [5] is roughly 2 nM. Also, in the experiment with human GITR-His [1], binding was characterised by a dissociation constant (Kd) of 1.85 nM, the koff came out at 0.000646 s⁻¹ and the association rate constant (kon) stood at 349000 M⁻¹ s⁻¹. In addition, the half-inhibitory concentration (IC50) in experiment [2] was 0.511 nM.

B8: hcIgG-16 (antibody, V domains shown)
VH: QVQLQESGGGSVQAGGSLRLSCAASGYTYNKYSWGWFRQAPGKEREGVAGIDSDGSTSYADSVKGRFTISKDNTKNTLYLQMNSLKPEDTAMYYCAASDWVSAIQALGVLAVRPYEYWGQGTQVTVSS
notes: also called heavy-chain antibody of Nb-16
Turning to B8, in the experiment with human GITR-His [1], binding was put at a Kd of 9.81 nM, the koff stood at 0.00114 s⁻¹ and the on-rate (kon) is 117000 M⁻¹ s⁻¹. In addition, in experiment [2], the IC50 was 34.1 nM.

Values taken from US20220267458A1 (Innovent, published 2022).
